Reference: the supplement of paper PMC9233669
This sample holds only a part of the variants without activity.

Tests used:
biotinyl-Leu-oxazolone = experiment: self-aminoacylation, catalytic enhancement (BLO) (fold over background); higher = more active; k-Seq, kA / k0A0; sequences stand for … in GGGAAUGGAUCCACAUCUACGAAUUC…UUCACUGCAGACUUGACGAAGCUG
Method in brief: (§1)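 Each biotinyl-aminoacyl-oxazolone, at 2–1250 μM, was incubated with mutagenized RNA pools (0.43 μM) carrying a 21-nt variable region. The 50 μL reactions contained HEPES/NaCl/KCl/MgCl2/CaCl2 buffer with 5% acetonitrile at pH 6.9–7.0 and ran for 90 minutes at room temperature. After streptavidin capture, RNA was measured by qPCR in triplicate and by Illumina sequencing, and catalytic enhancement was calculated as median kA over the uncatalyzed rate from a pseudo-first-order fit of per-sequence fraction reacted.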

biotinyl-Trp-oxazolone = experiment: self-aminoacylation, catalytic enhancement (BWO) (fold over background); higher = more active; k-Seq, kA / k0A0; sequences stand for … in GGGAAUGGAUCCACAUCUACGAAUUC…UUCACUGCAGACUUGACGAAGCUG
Method in brief: as §1

biotinyl-Phe-oxazolone = experiment: self-aminoacylation, catalytic enhancement (BFO) (fold over background); higher = more active; k-Seq, kA / k0A0; sequences stand for … in GGGAAUGGAUCCACAUCUACGAAUUC…UUCACUGCAGACUUGACGAAGCUG
Method in brief: as §1

| Sequence | self-aminoacylation (biotinyl-Leu-oxazolone) | self-aminoacylation (biotinyl-Trp-oxazolone) | self-aminoacylation (biotinyl-Phe-oxazolone) |
| --- | --- | --- | --- |
| AUUAUCCUGGUCAUCGAGGGA [Fam2.1 aminoacylation ribozyme variant] | 2.02 |  |  |
| CAGCUUCAAACAAUCGGUCUG [Fam1A.1 aminoacylation ribozyme variant] | 2.01 | 27.1 | 52 |
| AAGUGUGCUAAUAGUCGCGAG [Fam3.1 aminoacylation ribozyme variant] | 2.47 | 2.41 |  |
| CCACUUCAAUCAAUCGGUCUG [Fam1A.1 aminoacylation ribozyme variant] | 2.1 | 29.4 | 41.8 |
| CCACAGUUCAAGCAAUCGCUC [Fam1B.1 aminoacylation ribozyme variant] | 2.43 |  | 2.03 |
| CCCGACUUCAAGCAAUCGGUC [Fam1B.1 aminoacylation ribozyme variant] | 2.85 | 47.6 | 91.8 |
| CUACUUCAAACAAUCGCUGUG [Fam1A.1 aminoacylation ribozyme variant] | 2.54 |  |  |
| UAACUUCAAACAAUCGGUCUG [Fam1A.1 aminoacylation ribozyme variant] | 2.04 | 27.1 | 55.3 |
| CGACUUCAAACAAUCGGUUUG [Fam1A.1 aminoacylation ribozyme variant] | 2.33 | 32.7 | 63.5 |
| AUUACCCUGGUCAUCCAGUGC [Fam2.1 aminoacylation ribozyme variant] | 2.19 |  | 5.75 |
| UCACUUCAAACAAUCGGUCUG [Fam1A.1 aminoacylation ribozyme variant] | 2.11 | 35.1 | 70.7 |
| AUUCACCUAGGUCAUCUCGUG [Fam2.2 aminoacylation ribozyme variant] | 2.29 |  | 5.77 |
| AUUUCCCUGGUCAUCAAGUGA [Fam2.1 aminoacylation ribozyme variant] | 2.2 | 2.88 | 2.51 |
| CUGUUUCAAACAAUCGGUCUG [Fam1A.1 aminoacylation ribozyme variant] | 2.48 | 38.4 | 96.2 |
| GAGUUUGCUAAUAGUCGAAAG [Fam3.1 aminoacylation ribozyme variant] |  | 5.05 | 13.3 |
| ACGCACUUCAAGCAAUCGGUC [Fam1B.1 aminoacylation ribozyme variant] |  | 19.9 | 33.8 |
| AAGUUUUCUAAAAGUCGCAAG [Fam3.1 aminoacylation ribozyme variant] |  | 2.01 | 2.92 |
| AAAUUUGCUAAUAGUCGUAAG [Fam3.1 aminoacylation ribozyme variant] |  | 4.02 | 10.3 |
| AGGUUUGCUCAUAGUCGCAAG [Fam3.1 aminoacylation ribozyme variant] |  | 2.45 | 2.95 |
| CUCCUUCAAACAAUCGGACUG [Fam1A.1 aminoacylation ribozyme variant] |  | 8.83 | 12.9 |
| AAGUUUACUAAAAGUCGCAAG [Fam3.1 aminoacylation ribozyme variant] | 2.08 |  | 2.76 |
| CCACACUUCGAGCAAUCGGGC [Fam1B.1 aminoacylation ribozyme variant] | 2.07 |  | 9.16 |
| CUUCUUCAACCAAUCGGUCUG [Fam1A.1 aminoacylation ribozyme variant] |  | 6.07 | 9.05 |
| CCAAACUUCAAGCAAUCAGUC [Fam1B.1 aminoacylation ribozyme variant] |  | 3.03 | 9.55 |
| CUACUUCAAGUAAUCGGUCUG [Fam1A.1 aminoacylation ribozyme variant] |  | 6.74 | 9.14 |
